In one assay the test system is THP-1 cells. The assay is described as follows: Inhibition of TNF-α shedding from THP-1 cells (ELISA). Format: cell-based, human. Particulars: 100 ng/ml PMA, 6 h, 50 to 500 nM. How it is done:
FIG. 3. Effects of mutations in N-TIMP-3 on inhibition of cellular shedding of TNF-α. THP-1 cells (2.5×10^6/ml) growing in serum-free RPMI-1640 medium were stimulated with 100 ng/ml PMA for 20 min before adding various concentrations of N-TIMP-3 (wild-type and mutants). Cells were allowed to grow for another 6 hr and conditioned media were collected for the ELISA assays.
Inhibition of TNF-α shedding from THP-1 cells—All TIMP solutions were dialyzed against 20 mM Tris-HCl (pH 7.0), 150 mM NaCl and 20% glycerol before use. Human monocyte THP-1 cells cultured in RPMI-1640 medium supplemented with 5% fetal calf serum were harvested, extensively washed and reseeded into serum-free medium at 2.5×10^6 cells/ml. […] The amount of soluble TNF-α released into the medium was measured using sandwich enzyme-linked immunosorbent assay, as described by Engelberts et al. (30) with modifications. The released TNF-α was absorbed to microtiter plates coated with mouse monoclonal anti-human TNF-α antibody BD551220 (1:200 dilution), and the bound TNF-α was detected using biotinylated mouse monoclonal anti-human TNF-α: antibody BD554511 (1:500 dilution) and streptavidin conjugated with horse radish peroxidase, and 3,3′,5,5′-tetramethylbenzidine as peroxidase substrate (KPL, Guildford, UK). The plates were read at 450 nm with an ELX808 plate reader (BIO-TEK Instruments Inc). […]
(ELISA stands for enzyme-linked immunosorbent assay.)

Another assay addresses T1, ADAMTS-4 (Homo sapiens, UniProt O75173).
T1 sequence (O75173 213-837): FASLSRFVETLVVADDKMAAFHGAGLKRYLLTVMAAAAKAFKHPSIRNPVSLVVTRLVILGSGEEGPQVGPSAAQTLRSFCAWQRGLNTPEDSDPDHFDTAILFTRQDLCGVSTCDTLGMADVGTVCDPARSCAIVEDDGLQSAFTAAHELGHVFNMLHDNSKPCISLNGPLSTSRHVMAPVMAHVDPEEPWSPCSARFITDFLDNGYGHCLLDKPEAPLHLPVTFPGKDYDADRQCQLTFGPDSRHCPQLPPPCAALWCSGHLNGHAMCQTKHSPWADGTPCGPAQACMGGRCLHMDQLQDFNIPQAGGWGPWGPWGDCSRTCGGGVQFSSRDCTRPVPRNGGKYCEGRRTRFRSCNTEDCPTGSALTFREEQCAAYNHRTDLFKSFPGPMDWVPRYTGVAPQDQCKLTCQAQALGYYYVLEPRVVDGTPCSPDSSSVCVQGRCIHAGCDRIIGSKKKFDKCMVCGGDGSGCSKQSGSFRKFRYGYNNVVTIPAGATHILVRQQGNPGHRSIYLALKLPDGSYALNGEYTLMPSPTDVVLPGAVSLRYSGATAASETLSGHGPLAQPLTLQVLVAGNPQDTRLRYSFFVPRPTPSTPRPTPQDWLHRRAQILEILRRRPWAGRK
As to the kind of experiment: Aggrecanase assay with GST-IGD-FLAG substrate, ADAMTS-4. Format: biochemical. Particulars: Table 3, pH 7.5, 37° C., read-out: Ki(app) ADAMTS-4. As for the experimental part:
FIG. 8. Graphs of Ki(app) determination. The GST-IGD-FLAG substrate assay was used to determine the Ki(app) of the N-terminal reactive site mutants against ADAMTS-4 (filled squares) and ADAMTS-5 (open circles).
The substrate containing glutathione S-transferase (GST) fused with the interglobular domain (IGD) of aggrecan (Tyr^331 to Gly^457) attached with a C-terminal FLAG sequence (GST-IGD-FLAG) was prepared by cloning it into pGEX-4T1 at the EcoR1 and Xho1 cloning sites. This substrate was expressed in E. coli strain BL-21 (non-DE3) transfected with the pGEX4T1 GST-IGD-FLAG plasmid by induction with […] isopropyl-beta-D-thiogalactopyranoside (IPTG). […] The concentration of intact substrate (52 kDa) was determined by comparison with Coomassie Brilliant Blue staining of known amounts of bovine serum albumin (GE Healthsciences, Buckinghampshire, UK). […]
Aggrecanase assays were carried out in 50 mM Tris HCl pH 7.5, 150 mM NaCl, 10 mM CaCl2, 0.02% NaN3, 0.05% Brij-35 at 37° C. […] The stained gels were then scanned using a scanning densitometer (Biorad GS-710, Hemel Hempstead, UK) and the band intensity of the product (17 kDa) quantified using the 1D Phoretix quantification software (Nonlinear Dynamics, Newcastle upon Tyne, UK). Background subtraction was done using the rolling ball method, and band intensity expressed as pixel volumes.

Two molecules from US20090318342A1, “Compounds” (IMPERIAL INNOVATIONS LIMITED, priority 2005, published 2009) can be followed below.

B1: N-TIMP-3: N-terminal inhibitory domain of TIMP-3 (residues 1 to 121), C-terminally His-tagged, wild-type (protein)
chain: CTCSPSHPQDAFCNSDIVIRAKVVGKKLVKEGPFGTLVYTIKQMKMYRGFTKMPHVQYIHTEASESLCGLKLEVNKYQYLLTGRVYDGKMYTGLCNFVERWDQLTLSQRKGLNYRYHLGCN
Regarding B1, the “Inhibition of PMA-stimulated release of TNF-α” value in the assay on THP-1 cells is reported as “effectively inhibited”. The Ki in the assay with ADAMTS-4 was determined as 2.4 ± 1.6 nM.

B2: -1A: N-TIMP-3 mutant with the addition of an N-terminal alanine extension (-1A) (protein)
chain: ACTCSPSHPQDAFCNSDIVIRAKVVGKKLVKEGPFGTLVYTIKQMKMYRGFTKMPHVQYIHTEASESLCGLKLEVNKYQYLLTGRVYDGKMYTGLCNFVERWDQLTLSQRKGLNYRYHLGCN
Regarding B2, the “Inhibition of PMA-stimulated release of TNF-α” value in the assay with THP-1 cells is “only slightly reduced inhibitory activity”. Also, the Ki with ADAMTS-4 was found to be 25 ± 3 nM.
